From article PMC5615192 (mBio, 2017)

B1: unnamed (parent)
chain 1: EVQLQQSGAELVRPGALVKLSCKASGFNIKDYYMHWVKQRPEQGLEWIGWIDPENGKTIYDPRFRGKASITADTSSNTAYLQLSSLTSEDAAVYYCATSNYRYDRSFDYWGQGTTLTVSAKTTPPSVYPLAPGCGDTTGSSVTSGCLVKGYFPEPVTVTWNSGSLSSSVHTFPALLQSGLYTMSSSVTVPSSTWPSQTVTCSVAHPASSTTVDKKL
chain 2: DIQMTQSPSSLFASLGGKVTITCKASQDINKYIAWFQHKPGKGPRLLIHYTFTLQPGIPSRFSGSGSGRDYSFSISNLEPEDIATYYCLQYHNLYTFGGGTKLEIKRADAAPTVSIFPPSSEQLTSGGASVVCFLNNFYPKDINVKWKIDGSERQNGVLNSWTDQDSKDSTYSMSSTLTLTKDEYERHNSYTCEATHKTSTSPIVKSFNRNEC
chain 3: EATVYLPPVPVSKVVSTDEYVSRTSIYYYAGSSRLLAVGNPYFSIKSPNNNKKVLVPKVSGLQYRVFRVRLPDPNKFGFPDTSFYNPDTQRLVWACVGLEIGRGQPLGVGVSGHPYLNKFDDTETSNRYPAQPGSDNRECLSMDYKQTQLCLIGCKPPTGEHWGKGVACNNNAAATDCPPLELFNSIIEDGDMVDTGFGCMDFGTLQANKSDVPIDICNSTCKYPDYLKMASEPYGDSLFFFLRREQMFVRHFFNRAGKLGEAVPDDLYIKGSGNTAVIQSSAFFPTPSGSIVTSESQLFNKPYWLQRAQGHNNGICWGNQLFVTVVDTTRSTNMTLCTEVTKEGTYKNDNFKEYVRHVEEYDLQFVFQLCKITLTAEIMTYIHTMDSNILEDWQFGLTPPPSASLQDTYRFVTSQAITCQKTAPPKEKEDPLNKYTFWEVNLKEKFSADLDQFPLGRKFLLQSGLKAKPRLKRSAPTTRAPSTKRKKVKK
B2: unnamed (parent)
chain 1: B1 chain 3
chain 2: B1 chain 1
chain 3: B1 chain 2

Variants of: B1
Experiment: indirect ELISA
Conditions: with partner chain of the complex shown

Variant | EC50
chain 3 S135A | 0.0132 µg/mL
chain 3 D121A | 0.0784 µg/mL
chain 3 N137A | 0.011 µg/mL
chain 3 Q132A | 0.0152 µg/mL
chain 3 N275A | 0.0455 µg/mL

Variants of: B2
Experiment: SPR (Biacore)
Conditions: with partner chain of the complex shown; read off a plot

Variant | Kd
chain 1 N275A | 6.9 -log10, M
chain 1 R128A | 6 -log10, M
chain 1 N137A | 8.2 -log10, M
chain 1 Q132A | 7.9 -log10, M
chain 1 S135A | 8.2 -log10, M
